# From article PMC9720079, “Identification and Characterization of a Bacteriocin from the Newly Isolated Bacillus subtilis HD15 with Inhibitory Effects against Bacillus cereus” (Journal of Microbiology and Biotechnology, 2022)
# Ends that are not written are not given here.
# Columns and labels:
# [1] = test system: Pseudomonas aeruginosa KCCM 12539; test: Inhibitory spectrum, well diffusion method; format: cell-based; set-up: key: +++: Greater than 15 mm; −: no inhibition zone; conditions: inhibition zone class
# Protocol: (§1) Antimicrobial activity against several gram-positive and gram-negative bacteria was assessed using the agar well diffusion method, with some modifications. Cultures were incubated in tryptic soy medium at 37°C for 60 h. Cell-free supernatants were prepared by centrifugation (3,800 ×g, 4°C, 30 min) and used as an antagonistic substance. Each pathogen at 7.0 log CFU/ml was spread on a TSA plate. An 8-mm-diameter well was created using a cork borer on the agar plate, and 50 μl of the cell-free supernatant was added to the wells. The plates were left undisturbed for a few hours to allow the supernatant to diffuse into the agar and then cultured at 37°C for 18 h. The diameter of the resultant growth inhibition zone was measured as a measure of antimicrobial activity.
# [2] = test system: Shigella sonnei KCCM 41282; test: Inhibitory spectrum, well diffusion method; format: cell-based; set-up: key: +++: Greater than 15 mm; −: no inhibition zone; conditions: inhibition zone class
# Protocol: as §1
# [3] = test system: Salmonella choleraesuis KCCM 40736; test: Inhibitory spectrum, well diffusion method; format: cell-based; set-up: key: +++: Greater than 15 mm; −: no inhibition zone; conditions: inhibition zone class
# Protocol: as §1
# [4] = test system: Salmonella enteritidis CCARM 8206; test: Inhibitory spectrum, well diffusion method; format: cell-based; set-up: key: +++: Greater than 15 mm; −: no inhibition zone; conditions: inhibition zone class
# Protocol: as §1
# [5] = test system: Vibrio parahaemolyticus KCCM 11965; test: Inhibitory spectrum, well diffusion method; format: cell-based; set-up: key: +++: Greater than 15 mm; −: no inhibition zone; conditions: inhibition zone class
# Protocol: as §1
# [6] = test system: Vibrio vulnificus ATCC 29306; test: Inhibitory spectrum, well diffusion method; format: cell-based; set-up: key: +++: Greater than 15 mm; −: no inhibition zone; conditions: inhibition zone class
# Protocol: as §1
# [7] = test system: Cronobacter sakazakii KCTC2949; test: Inhibitory spectrum, well diffusion method; format: cell-based; set-up: key: +++: Greater than 15 mm; −: no inhibition zone; conditions: inhibition zone class
# Protocol: as §1
# [8] = test system: Escherichia coli O157:H7 ATCC 43894; test: Inhibitory spectrum, well diffusion method; format: cell-based; set-up: key: +++: Greater than 15 mm; −: no inhibition zone; conditions: inhibition zone class
# Protocol: as §1
# [9] = test system: Shigella flexneri KCCM 11937; test: Inhibitory spectrum, well diffusion method; format: cell-based; set-up: key: +++: Greater than 15 mm; −: no inhibition zone; conditions: inhibition zone class
# Protocol: as §1
# [10] = target: T1, proteinase K (E.C. 3.4.21.64) (Parengyodontium album, UniProt P06873); test: Effect of enzyme treatment on antimicrobial activity; format: in vitro ADME; conditions: 30 min; for effect of proteinase K treatment on antimicrobial activity: 2 mg/ml, pH 7.0, 37°C
# T1 construct: purchased Sigma-Aldrich
# Protocol: (§2) To evaluate the pH stability of the antimicrobial substance, the buffers were prepared with 0.1 M glycine-HCl buffer (pH between 2 and 4), 0.1 M sodium acetate buffer (pH between 4 and 6), 0.1 M sodium phosphate buffer (pH between 6 and 8), and 0.1 M Tris-HCl buffer (pH between 8 and 10). The antimicrobial substance was mixed with buffer at a ratio of 1:15 and incubated at 37°C for 12 h, and relative antimicrobial activity was measured. To evaluate temperature stability, purified bacteriocin was incubated at 0°C, 20°C, 40°C, 60°C, 70°C, 80°C, or 90°C for 12 h, and at 100°C for 1 h. Relative antimicrobial activity was assessed using the agar well diffusion method, and the zone of inhibition was measured in millimeters. To assess the effect of various enzymes on antimicrobial activity, lysozyme (E.C. 3.2.1.17), α-amylase (E.C. 3.2.1.1), lipase (E.C. 3.1.1.3), protease (E.C. 3.4.24.31), and proteinase K (E.C. 3.4.21.64) (all from Sigma-Aldrich) and pronase E (E.C. 3.4.24.4; Merck Millipore, USA) were prepared in sodium phosphate buffer (pH 7.0) at a final concentration of 4 mg/ml. Purified bacteriocin was mixed with each enzyme at 2 mg/ml and incubated at 37°C for 30 min, and the relative antimicrobial activity was measured.
# α-amylase (E.C. 3.2.1.1) = test: as above; format: in vitro ADME; conditions: 2 mg/ml, pH 7.0, 37°C, 30 min
# Protocol: as §2
# lipase (E.C. 3.1.1.3) = test: as above; format: in vitro ADME; conditions: 30 min
# Protocol: as §2
# gram-negative bacteria = test: Inhibitory spectrum, well diffusion method, gram-negative bacteria as a group; format: cell-based
# Protocol: as §1
# [11] = test system: Bacillus cereus KCCM 12667; test: Agar well diffusion test of purified bacteriocin; format: cell-based; conditions: Fig. 3C
# Protocol: as §1
# The molecular weight of bacteriocin was determined by tricine sodium dodecyl sulfate-polyacrylamide gel electrophoresis (SDS-PAGE; Bio-Rad, USA) at 100 V for 5 h on a 20% polyacrylamide gel with an ultra-low-range molecular weight marker (1,060–26,600 Da; Sigma-Aldrich), followed by silver staining (Amersham Biosciences, Sweden). Direct detection was then performed to determine whether the protein bands corresponded to bacteriocin [23].
# [12] = test system: Staphylococcus aureus ATCC 25923; test: Inhibitory spectrum, well diffusion method; format: cell-based; set-up: key to Antibacterial activity: +++: Greater than 15 mm; −: no inhibition zone
# Protocol: as §1
# B. cereus = test: Antimicrobial activity in arbitrary units, serial 2-fold dilutions, of purification steps; format: cell-based, Bacillus cereus
# Protocol: The protein content in the bacteriocin solution was measured using the modified Lowry method. A 50 μl volume of bacteriocin was mixed with 550 μl of biuret reagent (0.75 mM cupric sulfate and 94 mM sodium hydroxide) and incubated for 10 min at 25°C. A 25 μl volume of Folin–Ciocalteu’s phenol reagent (Sigma-Aldrich, USA) was then added, followed by incubation for 30 min at 25°C. Absorbance was measured at 725 nm using a VersaMax ELISA Microplate Reader (Molecular Devices, USA), and a standard curve was constructed using bovine serum albumin (Sigma-Aldrich). Antimicrobial activity was measured as arbitrary units per milliliter of purified microbial culture using serial 2-fold dilutions of the antimicrobial substance. […] AU/mL was calculated by multiplying AU by the dilution factor.
# [13] = test system: Bacillus cereus KCCM 40152; test: Inhibitory spectrum, well diffusion method; format: cell-based; conditions: for antimicrobial activity against B. cereus: well diffusion method
# Protocol: as §1
# [14] = test system: Listeria monocytogenes ATCC 15313; test: Inhibitory spectrum, well diffusion method; format: cell-based; conditions: for antimicrobial activity against L. monocytogenes: well diffusion method
# Protocol: as §1
# [15] = Temperature stability of bacteriocin, relative antimicrobial activity; format: physicochemical; conditions: for temperature range of stable activity: 12 h incubation; for Relative activity (%): 12 h, read-out agar well diffusion
# Protocol: as §2
# [16] = pH stability of bacteriocin, relative antimicrobial activity; format: physicochemical; conditions: 12 h; for Relative activity (%): substance:buffer 1:15, 37°C, read-out agar well diffusion
# Protocol: as §2
# [17] = listed as purified protein from B. subtilis HD15
# [18] = well diffusion, inhibition zone class
# [19] = listed as B. subtilis HD15 bacteriocin
# T1 sequence (P06873 106-384): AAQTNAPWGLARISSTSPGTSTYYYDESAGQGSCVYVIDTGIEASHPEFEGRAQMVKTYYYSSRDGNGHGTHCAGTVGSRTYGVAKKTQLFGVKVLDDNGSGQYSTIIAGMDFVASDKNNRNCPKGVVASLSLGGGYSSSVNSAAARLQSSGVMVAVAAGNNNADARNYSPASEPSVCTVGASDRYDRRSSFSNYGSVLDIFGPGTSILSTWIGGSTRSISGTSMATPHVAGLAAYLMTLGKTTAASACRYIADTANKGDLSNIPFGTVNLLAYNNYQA
sequence,measurement,setting,value
"SIGACLVDGPIPVIEG [bacteriocin from Bacillus subtilis HD15, 3.6 kDa bacteriocin related to subtilosin A, purified from B. subtilis HD15 culture by ammonium sulfate, DEAE-Sepharose and Sephacryl steps]",Antibacterial activity,[1],−
same,Antibacterial activity,[2],−
same,Antibacterial activity,[3],−
same,Antibacterial activity,[4],−
same,Antibacterial activity,[5],−
same,Antibacterial activity,[6],−
same,Antibacterial activity,[7],−
same,Antibacterial activity,[8],−
same,Antibacterial activity,[9],−
same,effect of proteinase K treatment on antimicrobial activity,[10],lost
same,effect of proteinase K treatment on antimicrobial activity,[10]; [17],completely inhibited
same,Relative activity (%),"[10]; proteinase K 2 mg/ml, sodium phosphate buffer pH 7.0, 37°C, read-out relative antimicrobial activity",0%
same,effect of amylase treatment on antibacterial activity,α-amylase (E.C. 3.2.1.1),no effect
same,effect of lipase treatment on antibacterial activity,"lipase (E.C. 3.1.1.3); 2 mg/ml, pH 7.0, 37°C",no effect
same,Relative activity (%),"lipase (E.C. 3.1.1.3); lipase 2 mg/ml, sodium phosphate buffer pH 7.0, 37°C, read-out relative antimicrobial activity",100%
same,antimicrobial activity against gram-negative bacteria,gram-negative bacteria,no activity
same,"Antibacterial activity, zone around purified bacteriocin",[11],clear zone
same,antimicrobial activity against Staphylococcus aureus,[12]; well diffusion method,no activity
same,Antibacterial activity,[12]; [18],−
same,Total activity (AU),"B. cereus; purification step from 500 ml culture, reciprocal of maximum 2-fold dilution giving a transparent zone, indicator strain not given","10,500 AU"
same,Specific activity (AU/mg),B. cereus; total activity per total protein (modified Lowry) of purification step,413.4 AU/mg
same,antimicrobial activity against B. cereus,[13]; [19],strong inhibition
same,antimicrobial activity against B. cereus,[13]; [17],high antimicrobial activity
same,Antibacterial activity,[13]; [18],+++ (Greater than 15 mm)
same,antimicrobial activity against L. monocytogenes,[14]; [19],strong inhibition
same,antimicrobial activity against L. monocytogenes,[14]; [17],high antimicrobial activity
same,Antibacterial activity,[14]; [18],+++ (Greater than 15 mm)
same,antimicrobial activity after incubation,[15]; 0–50°C for 12 h,100%
same,temperature range of stable activity,[15],up to 70 °C
same,temperature range of stable activity,[15]; [17],0–70 °C
same,activity remaining,[15]; after 12 h at 70°C and over a pH range between 3 and 9,more than 70%
same,Relative activity (%),[15]; heat 50°C,100%
same,Relative activity (%),[15]; heat 60°C,95%
same,Relative activity (%),[15]; heat 70°C,70%
same,Relative activity (%),[15]; heat 80°C,20%
same,Relative activity (%),[15]; heat 90°C,0%
same,Relative activity (%),"[16]; pH 2, 0.1 M glycine-HCl buffer",50%
same,Relative activity (%),"[16]; pH 3, 0.1 M glycine-HCl buffer",80%
same,antimicrobial activity remaining,"[16]; pH 3 to 9 as worded in text, 37°C",80%
same,Relative activity (%),"[16]; pH 4, 0.1 M glycine-HCl or sodium acetate buffer",95%
same,Relative activity (%),"[16]; pH 5, 0.1 M sodium acetate buffer",100%
same,antimicrobial activity maintained,"[16]; pH 5–7, 37°C",100%
same,Relative activity (%),"[16]; pH 6, 0.1 M sodium acetate or sodium phosphate buffer",100%
same,Relative activity (%),"[16]; pH 7, 0.1 M sodium phosphate buffer",100%
same,Relative activity (%),"[16]; pH 8, 0.1 M sodium phosphate or Tris-HCl buffer",95%
same,Relative activity (%),"[16]; pH 9, 0.1 M Tris-HCl buffer",80%
same,Relative activity (%),"[16]; pH 10, 0.1 M Tris-HCl buffer",30%
